The values below come from patent US20200069764A1 (Pfizer, published 2020).

For this assay, the target named is EDB+ FN on WI38-VA13 cells (human, UniProt P02751 32-2477). The assay can be described thus: cell-based or functional assay.
EDB+ FN on WI38-VA13 cells, sequence (P02751 32-2477): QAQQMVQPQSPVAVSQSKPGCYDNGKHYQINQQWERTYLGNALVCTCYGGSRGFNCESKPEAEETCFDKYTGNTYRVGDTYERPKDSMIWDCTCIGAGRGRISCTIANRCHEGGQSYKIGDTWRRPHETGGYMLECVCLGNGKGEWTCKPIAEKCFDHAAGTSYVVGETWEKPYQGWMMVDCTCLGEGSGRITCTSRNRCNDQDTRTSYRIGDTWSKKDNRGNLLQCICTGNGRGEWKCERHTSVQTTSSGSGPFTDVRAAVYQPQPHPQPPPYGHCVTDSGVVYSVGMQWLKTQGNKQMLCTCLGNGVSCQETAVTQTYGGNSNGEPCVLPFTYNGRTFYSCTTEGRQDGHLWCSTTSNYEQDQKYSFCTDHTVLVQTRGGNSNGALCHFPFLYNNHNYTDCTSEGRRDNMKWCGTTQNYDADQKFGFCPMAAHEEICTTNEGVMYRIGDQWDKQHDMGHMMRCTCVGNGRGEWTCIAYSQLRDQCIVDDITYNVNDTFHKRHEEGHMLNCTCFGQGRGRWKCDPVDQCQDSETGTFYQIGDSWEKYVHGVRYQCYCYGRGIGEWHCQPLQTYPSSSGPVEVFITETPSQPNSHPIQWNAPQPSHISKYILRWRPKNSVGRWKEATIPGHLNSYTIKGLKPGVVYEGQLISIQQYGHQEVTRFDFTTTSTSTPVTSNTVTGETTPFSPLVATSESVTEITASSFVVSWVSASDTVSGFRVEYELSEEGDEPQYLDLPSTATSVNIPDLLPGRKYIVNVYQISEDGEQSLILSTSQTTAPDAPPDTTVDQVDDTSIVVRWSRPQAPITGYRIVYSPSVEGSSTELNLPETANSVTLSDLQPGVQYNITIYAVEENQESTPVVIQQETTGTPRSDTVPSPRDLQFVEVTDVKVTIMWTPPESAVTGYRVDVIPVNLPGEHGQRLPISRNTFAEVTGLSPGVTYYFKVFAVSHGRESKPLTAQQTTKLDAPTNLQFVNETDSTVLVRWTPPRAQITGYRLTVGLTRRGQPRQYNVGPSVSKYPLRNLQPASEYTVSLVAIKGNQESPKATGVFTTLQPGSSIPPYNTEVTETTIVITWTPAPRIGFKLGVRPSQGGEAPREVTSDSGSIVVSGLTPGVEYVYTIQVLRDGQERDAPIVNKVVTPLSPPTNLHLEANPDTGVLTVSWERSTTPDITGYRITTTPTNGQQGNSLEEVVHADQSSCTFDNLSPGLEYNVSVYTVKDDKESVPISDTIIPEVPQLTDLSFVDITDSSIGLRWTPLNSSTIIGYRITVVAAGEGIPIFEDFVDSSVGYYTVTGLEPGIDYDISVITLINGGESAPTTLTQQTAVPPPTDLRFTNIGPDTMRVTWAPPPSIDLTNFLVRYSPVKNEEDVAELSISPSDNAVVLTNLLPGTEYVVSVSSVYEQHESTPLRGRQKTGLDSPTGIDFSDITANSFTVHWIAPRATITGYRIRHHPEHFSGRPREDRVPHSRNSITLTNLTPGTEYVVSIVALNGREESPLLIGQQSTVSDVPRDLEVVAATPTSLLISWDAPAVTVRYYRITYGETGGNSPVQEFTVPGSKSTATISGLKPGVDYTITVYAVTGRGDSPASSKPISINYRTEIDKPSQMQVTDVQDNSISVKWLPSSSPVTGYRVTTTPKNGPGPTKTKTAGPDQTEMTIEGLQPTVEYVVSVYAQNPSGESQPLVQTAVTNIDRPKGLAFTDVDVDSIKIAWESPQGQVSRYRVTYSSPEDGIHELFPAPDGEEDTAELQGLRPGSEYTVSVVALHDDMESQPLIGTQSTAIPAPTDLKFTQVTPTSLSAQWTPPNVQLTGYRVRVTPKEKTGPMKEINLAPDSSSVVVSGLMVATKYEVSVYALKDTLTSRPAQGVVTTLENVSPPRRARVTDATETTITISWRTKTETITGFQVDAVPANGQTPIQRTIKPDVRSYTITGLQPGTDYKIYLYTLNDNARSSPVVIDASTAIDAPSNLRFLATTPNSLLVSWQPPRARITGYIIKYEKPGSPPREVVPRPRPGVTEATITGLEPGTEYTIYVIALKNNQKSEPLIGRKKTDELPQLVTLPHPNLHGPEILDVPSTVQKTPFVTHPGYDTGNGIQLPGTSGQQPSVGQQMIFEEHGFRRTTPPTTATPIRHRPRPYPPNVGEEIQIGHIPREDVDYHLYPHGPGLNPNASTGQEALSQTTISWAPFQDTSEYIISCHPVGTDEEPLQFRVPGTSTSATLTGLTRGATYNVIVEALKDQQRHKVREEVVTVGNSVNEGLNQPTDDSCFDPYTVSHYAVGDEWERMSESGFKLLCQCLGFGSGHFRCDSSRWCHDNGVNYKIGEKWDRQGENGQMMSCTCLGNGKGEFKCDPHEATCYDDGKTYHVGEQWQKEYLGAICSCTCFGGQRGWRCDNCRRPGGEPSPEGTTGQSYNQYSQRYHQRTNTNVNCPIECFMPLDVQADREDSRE

B1: EDB-L19-diS-DM1 (antibody, human IgG1, kappa)
heavy: not shown
light: EIVLTQSPGTLSLSPGERATLSCRASQSVSSSFLAWYQQKPGQAPRLLIYYASSRATGIPDRFSGSGSGTDFTLTISRLEPEDFAVYYCQQTGRIPPTFGQGTKVEIKRTVAAPSVFIFPPSDEQLKSGTASVVCLLNNFYPREAKVQWKVDNALQSGNSQESVTEQDSKDSTYSLSSTLTLSKADYEKHKVYACEVTHQGLSSPVTKSFNRGEC
Regarding B1, the “Avg IC50 (ng/ml of antibody), in vitro cytotoxicity on WI38-VA13 cells” value (from here on “Avg IC50 (ng/ml of antibody)”) was found to be 268 ng/mL.

B2: EDB-L19-diS-4574 (antibody, human IgG1, kappa)
heavy: not shown
light: EIVLTQSPGTLSLSPGERATLSCRASQSVSSSFLAWYQQKPGQAPRLLIYYASSRATGIPDRFSGSGSGTDFTLTISRLEPEDFAVYYCQQTGRIPPTFGQGTKVEIKRTVAAPSVFIFPPSDEQLKSGTASVVCLLNNFYPREAKVQWKVDNALQSGNSQESVTEQDSKDSTYSLSSTLTLSKADYEKHKVYACEVTHQGLSSPVTKSFNRGEC
On to B2, for which the “Avg IC50 (ng/ml of antibody)” value turned out to be 487 ng/mL.

B3: EDB-L19-diS-C2OCO-1569 (antibody, human IgG1, kappa)
heavy: not shown
light: EIVLTQSPGTLSLSPGERATLSCRASQSVSSSFLAWYQQKPGQAPRLLIYYASSRATGIPDRFSGSGSGTDFTLTISRLEPEDFAVYYCQQTGRIPPTFGQGTKVEIKRTVAAPSVFIFPPSDEQLKSGTASVVCLLNNFYPREAKVQWKVDNALQSGNSQESVTEQDSKDSTYSLSSTLTLSKADYEKHKVYACEVTHQGLSSPVTKSFNRGEC
As for B3, the “Avg IC50 (ng/ml of antibody)” value is 21 ng/mL.
